US20230391828

Tested on: T1, G3-6, Ac-cyclo(4,11)-EWWZIKEIQRXRRA-NH2
T1 sequence: EWWXIKEIQRXRRA

## recombinant human APC/C (Strep-tagged APC4), expressed in SF9 cells
  in vitro APC/C ubiquitination assay with different E2 enzymes (UBE2C, UBE2D, UBE2S), Ub-cyclin B1 substrate, 100 µM, 40 min: The lead molecule G3-6 (SEQ. ID. NO. 33) inhibits APC/C in vitro independently on employed E2 enzymes.
